Measurements as given in patent publication US20250012721A1, “FLUORESCENCE DETECTION KIT FOR ACTIVATED COMPLEMENT C1s, DETECTION METHOD USING SAME, AND USE THEREOF” (JIANGSU UNIVERSITY, priority 2022, published 2025).

Molecular target: T1, activated C1s (Homo sapiens, UniProt P09871)
T1 construct: purchased Complement Technology
T1 sequence (P09871 16-437 limits assumed): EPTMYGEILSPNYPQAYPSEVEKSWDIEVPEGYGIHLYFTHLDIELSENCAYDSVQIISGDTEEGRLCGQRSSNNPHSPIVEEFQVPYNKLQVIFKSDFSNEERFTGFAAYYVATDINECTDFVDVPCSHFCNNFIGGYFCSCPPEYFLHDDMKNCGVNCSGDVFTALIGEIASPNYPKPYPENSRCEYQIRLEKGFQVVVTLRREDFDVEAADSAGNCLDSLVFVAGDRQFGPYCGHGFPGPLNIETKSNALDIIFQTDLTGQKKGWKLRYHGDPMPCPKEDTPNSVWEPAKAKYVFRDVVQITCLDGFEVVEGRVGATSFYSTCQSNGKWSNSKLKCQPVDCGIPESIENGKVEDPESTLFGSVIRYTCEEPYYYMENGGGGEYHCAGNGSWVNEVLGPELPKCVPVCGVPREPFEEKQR
T1 sequence (P09871 438-688 limits assumed): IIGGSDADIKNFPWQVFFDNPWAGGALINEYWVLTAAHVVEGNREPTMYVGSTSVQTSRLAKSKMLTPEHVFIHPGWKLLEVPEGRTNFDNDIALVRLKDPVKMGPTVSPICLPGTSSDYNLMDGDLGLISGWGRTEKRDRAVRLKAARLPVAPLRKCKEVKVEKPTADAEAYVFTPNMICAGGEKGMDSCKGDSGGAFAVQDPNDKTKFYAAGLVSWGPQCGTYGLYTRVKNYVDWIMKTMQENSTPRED
Assay: N-carboxybenzyloxythiobenzyl ester/DTNB colorimetric detection of enzymatic activity of C1s standard
Assay type: biochemical
Settings: for Enzymatic activity of C1s standards: conversion from Example 4
Source text: In the present disclosure, the enzymatic activity of activated C1s was detected in a sample to be tested. Therefore, it was necessary to determine the enzymatic activity of a C1s standard used in the experiment and to prepare a standard curve for later C1s enzymatic activity. The enzymatic activity of the activated C1s was detected by an N-carboxybenzyloxythiobenzyl ester/5,5′-dithiobis(2-nitrobenzoic acid) colorimetric method. The method specifically included the steps as follows: • (1) Materials: 1) Analysis buffer: 50 mM Tris, 250 mM NaCl, pH=8.0; • 2) substrate: N-carboxybenzyloxythiobenzyl ester (ZKSBzl), dissolved in 10 mM dimethyl sulfoxide; and • 3) 5,5′-dithiobis(2-nitrobenzoic acid) (DTNB), dissolved in 10 mM dimethyl sulfoxide. • (2) Detection of C1s activity units: • 1. The C1s standard was diluted to 0.2 μg/mL with an assay buffer. • 2. The DNTB was added to the assay buffer at a final concentration of 200 μM, and a substrate was added to the assay buffer at a final concentration of 1,000 μM. • 3. 50 μL of 0.2 ng/μL C1s was added into a plate. • 4. 50 μL of a mixture including 1,000 μM substrate/200 μM DTNB was added to the wells to start a reaction. • 5. An absorbance at 5 min was read at 405 nm with a microplate reader. • (3) Calculation of activated C1s:
In subsequent experiments, the enzymatic activity of the C1s standard was defined in this way.

B1: C1s standard: humanized or recombinant C1s standard; activated C1s used as calibrator (protein)
chain 1: T1 sequence (P09871 16-437 limits assumed)
chain 2: T1 sequence (P09871 438-688 limits assumed)
enzymatic activity (1 μg/mL C1s standard): 0.91 pmol/min/µg
Enzymatic activity of C1s standards (6.25 μg/mL): 5.7 pmol/min/µg
Enzymatic activity of C1s standards (12.5 μg/mL): 11.4 pmol/min/µg
Enzymatic activity of C1s standards (25 μg/mL): 22.8 pmol/min/µg
Enzymatic activity of C1s standards (50 μg/mL): 45.5 pmol/min/µg
Enzymatic activity of C1s standards (100 μg/mL): 91 pmol/min/µg
Enzymatic activity of C1s standards (200 μg/mL): 182 pmol/min/µg
